The results in this text go back to US20060121465A1, “Sgk and nedd used as diagnostic and therapeutic targets” (priority 2002, published 2006).

In the test the target is T1, Sglt1 (Homo sapiens, UniProt P13866).
T1 construct: expressed in transfected cells; host or cells: Xenopus laevis oocytes injected with in vitro synthesized cRNA
T1 sequence (P13866 1-664): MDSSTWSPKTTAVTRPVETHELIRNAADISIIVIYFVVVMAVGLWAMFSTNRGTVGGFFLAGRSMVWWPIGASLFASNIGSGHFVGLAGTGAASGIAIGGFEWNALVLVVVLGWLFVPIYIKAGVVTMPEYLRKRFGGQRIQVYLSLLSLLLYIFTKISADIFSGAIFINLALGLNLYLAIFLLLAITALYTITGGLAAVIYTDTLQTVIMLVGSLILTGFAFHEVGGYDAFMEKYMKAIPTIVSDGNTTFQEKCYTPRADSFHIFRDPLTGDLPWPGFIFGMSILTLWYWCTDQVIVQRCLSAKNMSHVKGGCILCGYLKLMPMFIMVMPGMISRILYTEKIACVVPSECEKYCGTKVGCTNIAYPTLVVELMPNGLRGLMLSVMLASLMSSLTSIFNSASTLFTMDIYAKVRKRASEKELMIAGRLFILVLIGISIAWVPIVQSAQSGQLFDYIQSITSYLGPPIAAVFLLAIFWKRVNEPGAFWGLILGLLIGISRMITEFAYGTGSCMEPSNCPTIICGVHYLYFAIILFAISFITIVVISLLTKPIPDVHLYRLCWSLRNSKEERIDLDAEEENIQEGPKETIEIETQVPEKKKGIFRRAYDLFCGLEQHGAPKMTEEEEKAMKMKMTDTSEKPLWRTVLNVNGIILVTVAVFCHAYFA
The experiment in a line: Two-electrode voltage clamp of glucose-induced currents in Xenopus laevis oocytes expressing Sglt1. The class given is cell-based. The note with it: for effect on currents induced by glucose (in words): oocytes expressing Sglt1; for stimulation of glucose transport by additional coexpression: further series of experiments (FIG. 5). An excerpt:
cRNAs encoding wild-type Sgk1 [Waldegger S, Barth P, Raber G, Lang F: Cloning and characterization of a putative human serine/threonine protein kinase transcriptionally modified during anisotonic and isotonic alterations of cell volume. […] Biochem J. 1999; 339: 319-28], wild-type Sgk3 and PKB [Kobayashi T, Deak M, Morrice N, Cohen P. Characterization of the structure and regulation of two novel isoforms of serum- and glucocorticoid-induced protein kinase. Biochem J. 1999; 334: 189-97], consitutively active ^T308D,S473DPKB [Alessi D R, Cohen P. Mechanism of activation and function of protein kinase B. Curr. Opin Genet Dev. 1998; 8: 55-62], wild-type Nedd4-2 [Debonneville C, Flores S Y, Kamynina E, Plant P J, Tauxe C, Thomas M A, Munster C, Chraibi A, Pratt J H, Horisberger J D, Pearce D, Loffing J, Staub O. Phosphorylation of Nedd4-2 by Sgk1 regulates epithelial Na(+) channel cell surface expression. EMBO J. 2001; 20: 7052-7059] and wild-type Sglt1 [Hediger M A, Coady M J, Ikeda T S, Wright E M. Expression cloning and cDNA sequencing of the Na^+/glucose co-transporter. Nature. 1987; 330: 379-381] were synthesized in vitro [Wagner C A, Friedrich B, Setiawan I, Lang F, Bröer S: The use of Xenopus laevis oocytes for the functional characterization of heterologously expressed membrane proteins. Cell Physiol Biochem 2000; 10: 1-12]. Dissection of the Xenopus laevis ovaries, and collection and treatment of the oocytes, have already been described in detail [Wagner C A, Friedrich B, Setiawan I, Lang F, Broer S: The use of Xenopus laevis oocytes for the functional characterization of heterologously expressed membrane proteins. Cell Physiol Biochem 2000; 10: 1-12]. The oocytes were injected with 5 ng of human sglt1, 7.5 ng of human sgk1, ^K127Nsgk1, ^S422Dsgk1, sgk3, PKB or ^T308D,S473DPKB, and/or with 5 ng of Xenopus nedd4-2. Control oocytes were injected with water. Electrophysiological experiments were carried out at room temperature for 3 days after the respective cRNAs had been injected. The currents which were induced by the extracellular administration of 20 mM or 5 mM glucose were measured using a two-electrode voltage clamp [Wagner C A, Friedrich B, Setiawan I, Lang F, Broer S: The use of Xenopus laevis oocytes for the functional characterization of heterologously expressed membrane proteins. Cell Physiol Biochem 2000; 10: 1-12] and taken as a measure of the glucose transport. The data were filtered at 10 Hz and analyzed using a MacLab Digital to Analog Converter and corresponding software (AD Instruments, Castle Hill, Australia). The control bath solution (ND 96) contained 96 mM NaCl, 2 mM KCl, 1.8 mM CaCl2, 1 mM MgCl2 and 5 mM HEPES, pH 7.4. All the substances were used at the stated concentrations. The final solutions were titrated with HCl or NaOH to the stated pH or pH 7.4. The flow rate of the superfusion solution was 20 ml/min and achieved complete change of solution within 10 s.
For the calculations, the data were quoted as arithmetic means±SEM. n is the number of oocytes investigated. All the experiments were carried out in at least three different groups of oocytes. Qualitatively similar data were obtained in all the repeats. The results were tested for significant differences using Student's t test. Only results giving P<0.05 were made use of as being statistically significant.
Background: Two-electrode voltage clamp is typically applied to oocytes expressing channels or transporters.

The mark [1] stands for this setting: 20 mM glucose, coexpressed with Sglt1, increase vs oocytes expressing Sglt1 on its own.
Where [2] appears, read: 20 mM glucose, coexpressed with Sglt1 and Nedd4-2.
Setting [3] is: coexpressed with Sglt1 and Nedd4-2.
Where [4] appears, read: further series of experiments (FIG. 5, procedure as in FIG. 4), coexpressed with Sglt1.
Where [5] appears, read: 5 mM glucose, coexpressed with Sglt1 and Nedd4-2.
Setting [6] is: 5 mM glucose, coexpressed with Sglt1 (FIG. 4).

Regarding “^T308D,S473DPKB: constitutively active protein kinase B mutant, expressed from injected cRNA”, the “glucose-induced current increased by coexpression” value (“glucose-induced current increased” below) under setting [1] is 117.4±15.8%. The “glucose-induced current higher than in oocytes expressing Sglt1 on its own” value (shortened to “glucose-induced current higher than”) under setting [2] is on record as 106.5±18.2%. In addition, the “effect on currents induced by glucose (in words)” value (shortened to “effect on currents induced”) (20 mM glucose, figure legends) was “stimulated the currents and reversed the effect of Nedd4-2”.

Take “PKB: wild-type protein kinase B, expressed from injected cRNA”: under setting [3], the “stimulation of glucose transport by additional coexpression” value (from here on “stimulation of glucose transport”) worked out at 107±20%. The “glucose-induced current increased” value under setting [4] was determined as 101±18%.

B1: Sgk3: wild-type Sgk isoform 3, expressed from injected cRNA (protein, UniProt Q96BR1 1-496, looked up)
Serine/threonine-protein …: MQRDHTMDYKESCPSVSIPSSDEHREKKKRFTVYKVLVSVGRSEWFVFRRYAEFDKLYNTLKKQFPAMALKIPAKRIFGDNFDPDFIKQRRAGLNEFIQNLVRYPELYNHPDVRAFLQMDSPKHQSDPSEDEDERSSQKLHSTSQNINLGPSGNPHAKPTDFDFLKVIGKGSFGKVLLAKRKLDGKFYAVKVLQKKIVLNRKEQKHIMAERNVLLKNVKHPFLVGLHYSFQTTEKLYFVLDFVNGGELFFHLQRERSFPEHRARFYAAEIASALGYLHSIKIVYRDLKPENILLDSVGHVVLTDFGLCKEGIAISDTTTTFCGTPEYLAPEVIRKQPYDNTVDWWCLGAVLYEMLYGLPPFYCRDVAEMYDNILHKPLSLRPGVSLTAWSILEELLEKDRQNRLGAKEDFLEIQNHPFFESLSWADLVQKKIPPPFNPNVAGPDDIRNFDTAFTEETVPYSVCVSSDYSIVNASVLEADDAFVGFSYAPPSEDLFL
As to B1, the “glucose-induced current increased” value turned out to be 123.6±15.0% under setting [1] and 117±16% under setting [4]. Further, under setting [2], the “glucose-induced current higher than” value is recorded as 112.4±19.4%. The “effect on currents induced” value (20 mM glucose, figure legends) is “stimulated the currents and reversed the effect of Nedd4-2”. Moreover, the “stimulation of glucose transport” value under setting [3] was determined as 114±26%.

B2: Sgk1: wild-type serum- and glucocorticoid-dependent kinase 1, expressed from injected human sgk1 cRNA (protein, UniProt O00141 1-431, looked up)
Serine/threonine-protein …: MTVKTEAAKGTLTYSRMRGMVAILIAFMKQRRMGLNDFIQKIANNSYACKHPEVQSILKISQPQEPELMNANPSPPPSPSQQINLGPSSNPHAKPSDFHFLKVIGKGSFGKVLLARHKAEEVFYAVKVLQKKAILKKKEEKHIMSERNVLLKNVKHPFLVGLHFSFQTADKLYFVLDYINGGELFYHLQRERCFLEPRARFYAAEIASALGYLHSLNIVYRDLKPENILLDSQGHIVLTDFGLCKENIEHNSTTSTFCGTPEYLAPEVLHKQPYDRTVDWWCLGAVLYEMLYGLPPFYSRNTAEMYDNILNKPLQLKPNITNSARHLLEGLLQKDRTKRLGAKDDFMEIKSHVFFSLINWDDLINKKITPPFNPNVSGPNDLRHFDPEFTEEPVPNSIGKSPDSVLVTASVKEAAEAFLGFSYAPPTDSFL
As for B2, under setting [5], the “glucose-induced current more than in oocytes injected with Sglt1 and Nedd4-2 mRNA” value was 126±23%; the “glucose-induced current more than in oocytes only injected with Sglt1” value is 61±21%. In addition, for the setting “5 mM glucose, coexpressed with Sglt1 and Nedd4-2 (FIG. 4)”, the glucose-induced current is recorded as 60.5±9.9 nA. For the same molecule, the “glucose-induced current increased” value under setting [1] is listed as 81.3±19.0%. In addition, under setting [2], the “glucose-induced current higher than” value was found to be 34.8±11.8%. Moreover, the “effect on currents induced” value (20 mM glucose, figure legends) is “stimulated the currents and reversed the effect of Nedd4-2”.

B3: ^S422DSgk1: constitutively active Sgk1 mutant (serine 422 to aspartate), expressed from injected cRNA (protein, UniProt O00141 1-431, looked up, variant S422D)
Serine/threonine-protein …: MTVKTEAAKGTLTYSRMRGMVAILIAFMKQRRMGLNDFIQKIANNSYACKHPEVQSILKISQPQEPELMNANPSPPPSPSQQINLGPSSNPHAKPSDFHFLKVIGKGSFGKVLLARHKAEEVFYAVKVLQKKAILKKKEEKHIMSERNVLLKNVKHPFLVGLHFSFQTADKLYFVLDYINGGELFYHLQRERCFLEPRARFYAAEIASALGYLHSLNIVYRDLKPENILLDSQGHIVLTDFGLCKENIEHNSTTSTFCGTPEYLAPEVLHKQPYDRTVDWWCLGAVLYEMLYGLPPFYSRNTAEMYDNILNKPLQLKPNITNSARHLLEGLLQKDRTKRLGAKDDFMEIKSHVFFSLINWDDLINKKITPPFNPNVSGPNDLRHFDPEFTEEPVPNSIGKSPDSVLVTASVKEAAEAFLGFDYAPPTDSFL
Turning to B3, under setting [6], the “glucose-induced current (Iglc)” value came out at 65.4±10.6 nA. For the same molecule, the “increase of Iglc by coexpression” value under setting [6] worked out at 77±23%. Moreover, the “effect on currents induced” value (5 mmol glucose, FIG. 4 legend) is on record as “significantly increased”; the “effect on currents induced” value (20 mM glucose, figure legends) was “stimulated the currents and reversed the effect of Nedd4-2”. The “glucose-induced current increased” value is given as 72.4±9.1% under setting [1] and 55±12% under setting [4]. Also, the “glucose-induced current higher than” value under setting [2] turned out to be 59.2±19.8%. Besides, the “stimulation of glucose transport” value under setting [3] is reported as 48±11%.

B4: ^K127NSgk1: inactive Sgk1 mutant, expressed from injected cRNA (protein, UniProt O00141 1-431, looked up, variant K127N)
Serine/threonine-protein …: MTVKTEAAKGTLTYSRMRGMVAILIAFMKQRRMGLNDFIQKIANNSYACKHPEVQSILKISQPQEPELMNANPSPPPSPSQQINLGPSSNPHAKPSDFHFLKVIGKGSFGKVLLARHKAEEVFYAVNVLQKKAILKKKEEKHIMSERNVLLKNVKHPFLVGLHFSFQTADKLYFVLDYINGGELFYHLQRERCFLEPRARFYAAEIASALGYLHSLNIVYRDLKPENILLDSQGHIVLTDFGLCKENIEHNSTTSTFCGTPEYLAPEVLHKQPYDRTVDWWCLGAVLYEMLYGLPPFYSRNTAEMYDNILNKPLQLKPNITNSARHLLEGLLQKDRTKRLGAKDDFMEIKSHVFFSLINWDDLINKKITPPFNPNVSGPNDLRHFDPEFTEEPVPNSIGKSPDSVLVTASVKEAAEAFLGFSYAPPTDSFL
As for B4, the “change of substrate-induced current” value (20 mM glucose, coexpressed with Sglt1, signed change vs Sglt1 alone) is listed as −2.0±5.3%. Moreover, the “glucose-induced current lower than in oocytes expressing Sglt1 on its own” value under setting [2] is listed as 54.9±9.7%.
